{
  "source": "patent US20200031807",
  "proteins": {"B1": {"name": "Flag-tagged AURKB protein (protein)", "chain": "MAQKENSYPWPYGRQTAPSGLSTLPQRVLRKEPVTPSALVLMSRSNVQPTAAPGQKVMENSSGTPDILTRRHFTIDDFEIGRPLGKGKFGNVYLAREKKSHFIVALKVLFKSQIEKEGVEHQLRREIEIQAHLHHPNILRLYNYFYDRRRIYLILEYAPRGELYKELQKSCTFDEQRTATIMEELADALMYCHGKKVIHRDIKPENLLLGLKGELKIADFGWSVHAPSLRRKTMCGTLDYLPPEMIEGRMHNEKVDLWCIGVLCYELLVGNPPFESASHNETYRRIVKVDLKFPASVPMGAQDLISKLLRHNPSERLPLAQVSAHPWVRANSRRVLPPSALQSVA"}},
  "target": "GST-histone H3 [GST: P08515]",
  "sequence (P08515 whole entry, looked up)": "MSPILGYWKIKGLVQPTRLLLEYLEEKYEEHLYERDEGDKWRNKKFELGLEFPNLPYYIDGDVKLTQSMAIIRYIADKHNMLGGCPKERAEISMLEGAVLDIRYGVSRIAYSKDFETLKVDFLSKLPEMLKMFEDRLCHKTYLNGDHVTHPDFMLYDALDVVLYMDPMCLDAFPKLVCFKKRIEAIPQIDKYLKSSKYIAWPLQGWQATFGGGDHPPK",
  "data": [
    {"protein": "B1", "values": [
      {"measurement": "in vitro phosphorylation, read by western blot", "value": "the Flag-AURKB protein had kinase activity and can phosphorylate histone H3"}
    ]}
  ]
}
